According to the supplement of paper PMC10567573:

B1: DYRK1B (parent)
chain: ARKYFERLPGGGWTLRRTKELRKD
B2: OR3A1 (parent)
chain: PMYFFLGNLSVLDVGCISVTVPSM

Variants of: B1
Experiment: protein stability index of a GFP-peptide fusion (GPS, HEK-293T) (PSI 1-6); higher = more stable
Details: c terminus: a fixed tail appended
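Note: lentivirally expressed fusions sorted by FACS into six bins by GFP to DsRed ratio, PSI derived from sequencing read proportions per bin multiplied by bin number.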

Protein stability index of substitutions, site by site:
R22: M 3.88, H 3.5, Y 1.88, Q 3.9, L 2.59, T 4.19, P 3.48, N 3.97, K 3.36
D24: K 3.07, Q 3.68, L 2.58, C 2.7, A 3.75, E 3.63, H 2.54, F 2.3, G 3.24, I 3.82, R 3, W 1.91, T 3.36
K23: Y 3.07, T 3.14, L 2.81, I 2.58, V 3.18, P 3.1, Q 2.83, H 3.33, D 2.72, N 3.34

Variants of: B2
Experiment: as above
Details: c terminus: a fixed tail appended

Protein stability index, by site and new letter:
F4: S 1.91, K 1.52, T 1.26
D13: Q 2.48, P 3.47, V 1.73, I 3.37, E 3.63, S 2.33, N 2.1
V21: Q 2.67, M 2.58, R 1.86, F 1.96, D 4.14, S 2.8, W 2.5
C16: S 3.15, H 2.83, G 2.78, F 2.85, N 2.12, Y 2.14
Y3: G 2.22, V 4.51, M 2.3, N 2.37
F5: G 1.83, N 2.82
G15: M 3.18, A 2, P 2.36, C 2.71
P1: T 2.16, Q 3.32, A 2.23, I 2.88
L12: G 2.35, N 1.49, E 1.85, C 2.83, I 3.78
L6: E 2.34, P 1.62
M2: T 2.15, E 2.1, H 2.67, I 2.31
S18: Y 2.26, T 2.94, Q 2.54, A 3.06, H 3.06, V 1.8, W 2.37, N 3.31
V14: T 3.36, N 3.31, M 3.24, Y 4.29, C 1.99, L 4.23, G 3.25, Q 1.89, D 1.96, R 1.39
I17: P 3.39, A 3.4, R 3.71, D 3.15, E 2.17, F 3.32, K 2.97, H 2.75, N 4.43
S10: R 2.27, K 3.48, M 3.29, Q 1.03, C 2.81
G7: S 2.72, Y 2.69, N 1.99, A 3.1, H 1.39, E 3.86, T 2.84
T20: M 4.27, E 2.71, D 1.12, V 3.39, I 2.43, W 2.62
V11: Q 2.65, G 2.77, D 3.12, F 3.67, S 3.56, Y 2.86
S23: L 3.71, V 4.29, H 2.76, N 2.58, M 2.67, C 2.56, W 2.84, G 2.99, T 2.84
N8: W 3.59, P 2.27
P22: M 2.94, C 2.72, K 3.56, Y 3.21, L 2.95, F 2.46, D 2.56
V19: S 3.48, R 2.38, K 3.29, I 2.3, M 2.97, Y 2.93, A 1.59, T 4.48
M24: L 1.24, T 2.89, D 3.67, W 3.96, I 2.02
L9: D 2, S 1.99, A 2.42, Q 1.96, E 3.5
